Assay results as given in paper PMC2650857.
Where two headings read alike, the source gives them in different places.

How the values were obtained:
[1] = biological target: MOP receptor stably expressed in CHO-K1 cells (plasma membranes) (UniProt P35372); assay: radioligand binding
[2] = biological target: MOP receptor stably expressed in CHO-K1 cells (plasma membranes) (UniProt P35372); assay: radioligand binding; remark: listed apart in the source

Sequence of UniProt P35372 (P35372 whole entry): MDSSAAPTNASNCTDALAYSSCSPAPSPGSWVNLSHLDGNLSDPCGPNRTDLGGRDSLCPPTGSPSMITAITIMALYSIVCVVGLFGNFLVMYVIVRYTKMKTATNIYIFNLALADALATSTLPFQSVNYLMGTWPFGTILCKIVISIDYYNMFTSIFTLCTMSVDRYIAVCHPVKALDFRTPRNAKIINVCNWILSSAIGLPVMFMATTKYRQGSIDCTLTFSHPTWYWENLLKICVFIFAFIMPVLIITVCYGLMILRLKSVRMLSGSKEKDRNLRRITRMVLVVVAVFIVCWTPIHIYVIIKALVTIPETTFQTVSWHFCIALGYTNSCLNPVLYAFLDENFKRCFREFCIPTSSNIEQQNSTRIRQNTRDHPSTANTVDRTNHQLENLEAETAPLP

With “DAMGO, [D-Ala^2, NMePHe^4, Gly^5-ol]enkephalin (peptide)” as the substance, how does the Ki [1] read?
Its Ki is 6.7 nM.

And the Ki [2]?
Its Ki is 11 nM.
